Data published in US20250114467A1 (SHANGHAI FUDAN ZHANGJIANG BIO PHARMACEUTICAL, published 2025).

Columns and labels:
[1] = target: T1, human DLL3 (hDLL3) on cells (human, UniProt Q9NYJ7 27-618); assay: flow cytometry on SHP-77 cells, 1 µg/ml antibody, kept on ice (0 H of the internalization assay)
T1 construct: whole, on cells; V5-tagged); also called DLL3 on SHP-77 cells (endogenous); hDLL3 on HEK293 cells
T1 sequence (looked up): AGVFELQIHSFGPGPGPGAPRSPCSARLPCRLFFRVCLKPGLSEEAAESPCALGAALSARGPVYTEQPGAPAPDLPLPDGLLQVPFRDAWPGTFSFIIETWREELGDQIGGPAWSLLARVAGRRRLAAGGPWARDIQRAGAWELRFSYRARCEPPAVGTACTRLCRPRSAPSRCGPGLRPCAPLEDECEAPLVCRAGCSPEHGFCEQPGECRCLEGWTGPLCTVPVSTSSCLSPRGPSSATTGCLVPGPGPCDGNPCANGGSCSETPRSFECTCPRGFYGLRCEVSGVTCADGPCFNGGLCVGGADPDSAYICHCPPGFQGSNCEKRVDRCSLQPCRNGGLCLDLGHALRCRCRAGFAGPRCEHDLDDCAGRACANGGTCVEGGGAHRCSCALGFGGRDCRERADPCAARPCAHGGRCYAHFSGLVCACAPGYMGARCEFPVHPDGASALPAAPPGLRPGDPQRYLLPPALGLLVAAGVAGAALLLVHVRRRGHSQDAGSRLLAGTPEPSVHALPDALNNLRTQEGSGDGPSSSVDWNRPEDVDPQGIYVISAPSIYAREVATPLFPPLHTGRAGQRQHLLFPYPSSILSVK
Protocol: The SHP-77 cells were used to detect the internalization activity of the hybridoma antibodies obtained in Example 3-3 by using the FACS method described in Example 3-1. The detecting method is briefly described as follows: Six aliquots of 5×10⁵ SHP-77 cells each were prepared in a 96-well V-bottom plate and centrifuged at 1500 r/min for 1 minute, after which the supernatant was discarded. 1 μg/ml of the saturated antibody to be detected was added to each well (200 μL per well) and incubated on ice for 30 minutes. Then, 150 μL of PBS was added to each well, followed by centrifugation at 1500 r/min for 1 minute, and the supernatant was discarded. This step was repeated four times. The cells were resuspended in 200 μl of PBS, and one aliquot was incubated at 37° C. for various durations: 5 hours, 3 hours, 1 hour, 0.5 hours, and 15 minutes. The remaining aliquot was kept on ice. After incubation, all samples were centrifuged at 4° C., 1500 r/min for 1 minute, and the supernatant was discarded. APC-labeled goat anti-mouse IgG (Jackson, catalog number 109-605-098, diluted 1:800 in PBS) was added to each well (50 μL per well) and incubated on ice for 30 minutes. The cells were then washed four times by resuspending in 150 μL of PBS, followed by centrifugation at 1500 r/min for 1 minute and discarding the supernatant. Finally, the cells were resuspended in 100 μL of PBS and analyzed using a CytoFLEX flow cytometer (purchased from Beckman).

[2] = target: T2, recombinant DLL3 protein (purchased from ACRO, DL3-H5255) (human, UniProt Q9NYJ7 27-479); assay: ELISA, plate-coated human DLL3 protein 1 µg/ml
T2 construct: Bought; also called human DLL3 protein; hDLL3
T2 sequence (looked up): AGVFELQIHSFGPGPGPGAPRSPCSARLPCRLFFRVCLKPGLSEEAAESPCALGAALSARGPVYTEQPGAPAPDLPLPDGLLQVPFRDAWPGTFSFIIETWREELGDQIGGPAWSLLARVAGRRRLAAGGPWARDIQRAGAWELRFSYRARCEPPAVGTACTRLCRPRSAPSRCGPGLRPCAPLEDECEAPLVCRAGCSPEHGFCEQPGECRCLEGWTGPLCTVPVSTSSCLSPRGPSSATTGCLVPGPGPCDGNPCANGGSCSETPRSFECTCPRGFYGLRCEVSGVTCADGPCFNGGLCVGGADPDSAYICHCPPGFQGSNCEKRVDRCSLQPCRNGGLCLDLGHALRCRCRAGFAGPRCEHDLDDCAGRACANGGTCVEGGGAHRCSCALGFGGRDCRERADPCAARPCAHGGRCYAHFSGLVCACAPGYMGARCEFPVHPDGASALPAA
Excerpt: Six 6-week-old SPF grade female Balb/C mice (purchased from Shanghai Jihui Laboratory Animal Care Co., Ltd.) were selected and randomly divided into two groups, A and B. They were immunized with recombinant DLL3 protein (purchased from ACRO, DL3-H5255) at two-week intervals. Freund's complete adjuvant was used for the first immunization and Freund's incomplete adjuvant was used for subsequent immunizations. On days 35 and 49, blood samples were collected from the mice via orbital bleeding, and the immune serum titers of the mice were detected using conventional methods of ELISA and Flow Cytometry (FACS). ELISA detection method: DLL3 protein was diluted with PBS to a concentration of 1 μg/ml. 100 μl/well was added to a 96-well ELISA plate and incubated overnight at 4° C. The next day, the supernatant was discarded, and each well was blocked with 200 μl of 2% milk in PBS for 2 hours. After discarding the blocking solution, the wells were washed 3 times with 200 μl of PBST (0.1% Tween20). The serum to be detected was pre-diluted 100 times as the starting concentration, followed by a 3-fold gradient dilution across 11 concentrations, with 100 μl added to each well of the ELISA plate. After incubating at room temperature for 1 hour, the supernatant was discarded and the wells were washed 5 times with 200 μl of PBST (0.1% Tween20). Then, 100 μl of HRP-labeled goat anti-mouse secondary antibody (Jackson, 1:10000) was added and incubated at room temperature for 1 hour. After discarding the supernatant, the wells were washed 7 times with 200 μl of PBST (0.1% Tween20). 100 μl of TMB chromogen solution was added to each well for 10 minutes. The reaction was terminated with 2M HCl, and absorbance value at 450 nm was read with a Microplate Reader (purchased from Biotek, Elx808).
For the hybridoma clones with good binding and internalization activities identified in Example 5, the heavy chain variable region sequences were synthesized and cloned into the pFUSEss-CHIg-hG1 vector (purchased from InvivoGen, catalog number pfusess-hchgl) comprising the amino acid sequence of the human antibody IgG1 heavy chain constant region by homologous recombination.

B1: 1A5 (antibody, V domains shown)
VH: EVQLQQSGPELVKPGASVKISCKTSGYTFTESAMHWVKQSHGKSLEWIGGINPNNGGISYSQKFKGKATLTVDKSSSTAYMELRSLTSEDSAVYYCGSSYYRDYFDYWGQGTTLTVSS
VL: NIVMTQSPESMSMSVGERVTLSCKASENVGTYVSWYQQKPDQSPKLLIYGASNRYTGVPDRFTGSGSATHFTLTISSVQAEDLADYHCGQSYSYPLTFGAGTKLELK
notes: also called hybridoma antibody clone 1A5
For B1, the “fluorescence value at 0 H” value [1] was 39300.

B2: 4H7 (antibody, V domains shown)
VH: EVQLQQSGAELVRPGALVKLSCKASGFNFKDYYIHWVKQRPELGLEWIGWIDPENGNAIYDPKFQDKASITADTSSNTAYLHLSSLTSEGTAVYYCASEDAYYPFAYWGQGTLVTVSS
VL: DIVMSQSPSSLAVSVGEKVTMRCKSSQSLLYSSNQKNYLAWYQQKPGQSPKLLIYWASTRESGVPDRFTGSGSGTDFTLTISSVKAEDLAVYFCQQYYSYRTFGGGTKLEIK
notes: Murine hybridoma monoclonal antibody; also called hybridoma antibody clone 4H7
For B2, the “fluorescence value at 0 H” value [1] was 15400.

B3: 6A2 (antibody, V domains shown)
VH: EVQLQQSGPELVKPGASVKISCKASGYTFTDYNMNWVKQSQGKSLEWIGYIYPYNGGTGYNQKFKTKATLTVDNSSSTAYMEFRSLTSEDSAVYYCARSDPYYTMDYWGQGTSVTVSS
VL: IIVMTQTPKFLLVSAGDRVTISCKASQSVNNDVAWYQQKPGQSPKLLIYFTSNRFTGVPDRFTGSGYGTDFTFTISSVQAEDLAVYFCQQDHNSPYTFGGGTKLEIK
notes: Murine hybridoma monoclonal antibody; also called hybridoma antibody clone 6A2
With B3 the “fluorescence value at 0 H” value [1] was 20300.

B4: 15G2 (antibody, V domains shown)
VH: EVQLQQSGPELEKPGASVRISCKASGYSFTDYNMHWVKQSNGKSLEWIGNIDPYYGGTNYNQKFEGKATLTVDKSSSTAYMQLKSLTSEDSAVYYCARGGNNYGDYWGQGTTLTVSS
VL: DIQMTQSPASLAASVGETVTITCRASENIYYSLAWYQQKQGKSPQLLIFNANSLEDGVPSRFSGSGSGTQYSMKINSMQPEDTATYFCKQAYDVPWTFGGGTKLEIK
notes: Murine hybridoma monoclonal antibody; also called hybridoma antibody clone 15G2
B4 was tested, and the “fluorescence value at 0 H” value [1] was 20300.

B5: FDA027 (antibody, human IgG1, kappa, V domains shown)
VH: QVQLVQSGAEVKKPGASVKVSCKASGYTFTNYGMNWVRQAPGQGLEWMGWINTYTGEPTYADDFKGRVTMTTDTSTSTAYMELRSLRSDDTAVYYCARIGDSSPSDYWGQGTLVTVSS
VL: EIVMTQSPATLSVSPGERATLSCKASQSVSNDVVWYQQKPGQAPRLLIYYASNRYTGIPARFSGSGSGTEFTLTISSLQSEDFAVYYCQQDYTSPWTFGQGTKLEIKR
notes: also called anti-DLL3 antibody FDA027
B5 gave an EC50 [2] of 0.0108 µg/mL.

B6: 10B1 (antibody, V domains shown)
VH: DVKLVESGGGLVKPGGSLKLSCAASGFTFSNYTISWVRQTPEKRLEWVATFSSGGSYTYYSDSVKGRFTISRDNAKNTLYLQMSSLKSEDTAMYYCSRDRRSDGYYHLYAMDYWGQGTSVTVSS
VL: DIQMTQTTSSLSASLGDRVTISCRASQDISHYLNWYQQKPDGTVKLLIYYTSRLHSGVPSRFSGSGSGTAYSLTISNLEQEDIATYFCQQGYTLPLTFGAGTKLELK
notes: Murine hybridoma monoclonal antibody; also called hybridoma antibody clone 10B1
With B6 the “fluorescence value at 0 H” value [1] was 22400.

B7: 13C2 (antibody, V domains shown)
VH: EVKLVESGGGLVKPGGSLKLSCAASGFAFSSYDMSWVRQTPEKRLEWVATISSGGSYTYYPDSVKGRFTISRDNGRNTLYLQMSSLRSEDTALYYCASPLLGLRFAYWGQGTLVTVSA
VL: QAVVTQESALTTSPGETVTLTCRSSTGAVTTINYANWVQEKPDHLFTGLIGGTNNRAPGVPARFSGSLIGDKAALTITGAQTEDEAIYFCALYYSNHWVFGGGTKLTVL
notes: Murine hybridoma monoclonal antibody; also called hybridoma antibody clone 13C2
With B7 the “fluorescence value at 0 H” value [1] was 40200.

B8: 19C7 (antibody, V domains shown)
VH: EVQLQQSGPELVRPGASVRMSCKASGYTFTYYVMHWVKQKPGLGLEWIGYINPYNDGTEYNEKFKGKATLTSDKSSSTAFMELSSLTSEDSAVYYCARWLLREYAMDYWGQGTSVTVSS
VL: DIQMTQSPASLSASVGETVTITCRASDNIHNYLAWYQQKQGKSPQLLVYNAKTLADGVPSRFSGSGSGTQYSLKINSLQPEDFGSYYCQHFWSTPWTFGGGTKLEIK
notes: Murine hybridoma monoclonal antibody; also called hybridoma antibody clone 19C7
For B8, the “fluorescence value at 0 H” value [1] was 29600.

B9: 23G2 (antibody, V domains shown)
VH: QVQLQQSGPELVRPGVSVKISCKGSGYTFTDYAIHWVKQSRAKSPEWIGIVSTDSGKTSFNQKFKGKATMTVDKSSTTAYMELVRLTSEDSAIYYCARNPYYDYDGYAMDYWGQGTSVTVSS
VL: DIQMTQSSSYLSVSLGGRVTIICKASDHINNWLAWYQQKPGNAPRLIISGATSLETGVPSRFSGSGSGKDYTLSITSLQTEDVATYYCQQYWSIPYTFGGGTKLEIK
notes: Murine hybridoma monoclonal antibody; also called hybridoma antibody clone 23G2
In the case of B9, the “fluorescence value at 0 H” value [1] is reported as 20300.

B10: 26D9 (antibody, V domains shown)
VH: EVQLQQSGPELVKPGASVKMSCKASGYTFTTYVMHWVKQKPGQGLEWIGYINPYNDDTNYNEKFKGKATLTSDKSSSTAYMELSSLTSEDSAVYYCARWGLTGTGDYYAMDYWGQGTSVTVSS
VL: DIQMTQSPASLSASVGETVTITCRASGNVHNYLAWYQQKQGRSPQVLVYNAKTLADGVPSRFSGSGSGTQYSLKINSLLPEDFGSYYCQHFWTTPWTFGGGTTLEIK
notes: Murine hybridoma monoclonal antibody; also called hybridoma antibody clone 26D9
For B10, the “fluorescence value at 0 H” value [1] was 15300.

B11: 32E8 (antibody, V domains shown)
VH: QVTLKESGPGILQPSQTLSLTCSFSGFSLSTSGMGVGWIRQPSGKGLEWLALIWWDDVKRYHPALKSRLTISKDTSSSQVFLKIASVDTADTATYYCARIAEVTGQVGLHYAMDYWGQGTSVTVSS
VL: QTVLTQSPAIMSASLGERVTMTCTASSSVNSSSLHWYQQKPGSSPKLWIYTTSNLASGVPARFSGSGSGTSYSLTISSMEAEDAATYYCHQFHRSPFTFGSGTKLEIK
notes: Murine hybridoma monoclonal antibody; also called hybridoma antibody clone 32E8
B11 was tested, and the “fluorescence value at 0 H” value [1] was 32100.

B12: 33F11 (antibody, V domains shown)
VH: EVQLQQSGPELVKPGASVKISCKTSGYTFTENTMHWVKQSHGESLEWIGGINPRNGVTSYNQKFKGKATLTVDKSSSTAYMELRSLTSEDSAVYYCTNTYYRDYFDYWGQGTTLTVSS
VL: NIVMTQSPKSMSMSVGERVTLSCKASENVGTYVSWYQQKPDQSPKLLIYGASNRYTGVPDRFTGSGSPTDFTLTISRMQAEDLAHYYCGQTYTYPLTFGAGTKLELK
notes: Murine hybridoma monoclonal antibody; also called hybridoma antibody clone 33F11
B12 was tested, and the “fluorescence value at 0 H” value [1] was 27600.

B13: 36H10 (antibody, V domains shown)
VH: EVQFQQSGPELVKPGASVKISCKASGYTFTDYNIHWVRQSQGKSLEWIGLIYPFNGGIVYNQKFKSKATLTVDNSSTSAYMELRSLSSEDSAVYFCARLNWEGYWGQGSTLIVSS
VL: DIKMTQSPSSIYAFLGERVTITCKASQDINSYLSWFQQKPGKSPKTLIYRANRLVGGVPSRFSGSGSGQDYSLTISSLEYEDVGDYYCLQYAEFPYTFGGGTKLEIK
notes: Murine hybridoma monoclonal antibody; also called hybridoma antibody clone 36H10
B13 was tested, and the “fluorescence value at 0 H” value [1] was 36000.
